From paper PMC7820937 come the findings set out here.

Common to all, as to test: ELISA
(In general: In an ELISA, binding on a coated surface is turned into a signal by an enzyme label.)

Experiment [1] addresses C4BP α-chain deletant ΔCCP1 (human) (UniProt P04003).
The target of experiment [2] is C4BP α-chain deletant ΔCCP2 (human) (UniProt P04003).
Experiment [3] concerns the target C4BP α-chain deletant ΔCCP3 (human) (UniProt P04003).
The target of experiment [4] is C4BP α-chain deletant ΔCCP4 (human) (UniProt P04003).
Experiment [5] concerns the target C4BP α-chain deletant ΔCCP5 (human) (UniProt P04003).
The target of experiment [6] is C4BP α-chain deletant ΔCCP6 (human) (UniProt P04003).
In experiment [7] the target is C4BP α-chain deletant ΔCCP7 (human) (UniProt P04003).
Experiment [8] concerns the target C4BP α-chain deletant ΔCCP8 (human) (UniProt P04003).
Experiment [9] deals with C4BP α-chain deletant ΔCCP4 (human) (UniProt P04003). The source holds these as a separate data set.
Experiment [10] concerns the target C4BP α-chain deletant ΔCCP5 (human) (UniProt P04003). The source holds these as a separate data set.

Read-outs that look alike come from different tables or passages of the source.

On to “Influenza A virus A/England/2009 (H1N1), whole virus particles (complex)”, for which the percent loss of binding against full-length C4BP is 20% in experiment [1]; 20% in experiment [2]; 60% in [4]; 60% in [5]; 49% in experiment [7]; 75% in experiment [8]. In addition, the percent loss of binding against full-length C4BP in experiment [9] and in experiment [10] was 67% in each case. Also, the percent increase of binding against full-length C4BP in experiment [3] and in [6] was 10% each time.

Take “Influenza A virus A/HK/99 (H3N2), whole virus particles (complex)”: the percent loss of binding against full-length C4BP in experiment [1] amounted to 80%; in experiment [2], 80%; in [4] it was 80%; in experiment [5], 80%; in experiment [7], 62%; in experiment [8], 75%. In addition, the percent increase of binding against full-length C4BP in experiment [3] and in [6] was 10% in each case.
